Experimental data from article PMC9482650, “Quantitative fragmentomics allow affinity mapping of interactomes” (Nature Communications, 2022).

T1: APBA2_2, Q99767
T1 sequence (Q99767 654-744, limits assumed, looked up): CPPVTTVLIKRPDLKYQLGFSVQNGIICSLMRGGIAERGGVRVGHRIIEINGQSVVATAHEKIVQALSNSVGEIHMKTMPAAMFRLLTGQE

T2: LIN7C, Q9NUP9
T2 sequence (Q9NUP9 88-185, limits assumed, looked up): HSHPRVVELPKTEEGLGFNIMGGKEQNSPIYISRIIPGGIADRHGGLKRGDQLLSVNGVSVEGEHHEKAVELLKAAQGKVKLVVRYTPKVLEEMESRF

T3: ARHGAP21, Q5T5U3
T3 sequence (Q5T5U3 45-169, limits assumed, looked up): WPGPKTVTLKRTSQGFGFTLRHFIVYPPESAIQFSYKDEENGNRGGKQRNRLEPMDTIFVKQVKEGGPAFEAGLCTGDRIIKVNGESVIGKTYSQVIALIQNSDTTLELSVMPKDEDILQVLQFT

T4: PDZD2_2, O15018
T4 sequence (O15018 329-429, limits assumed, looked up): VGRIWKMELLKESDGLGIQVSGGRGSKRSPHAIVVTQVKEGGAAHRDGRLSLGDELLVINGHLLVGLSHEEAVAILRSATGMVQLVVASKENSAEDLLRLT

T5: PDZRN3_1, Q9UPQ7
T5 sequence (Q9UPQ7 244-349, limits assumed, looked up): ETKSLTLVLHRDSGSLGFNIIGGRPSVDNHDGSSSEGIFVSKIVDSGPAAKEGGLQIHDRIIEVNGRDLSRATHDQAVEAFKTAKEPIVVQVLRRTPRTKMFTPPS

T6: GRIP1_4, Q9Y3R0
T6 sequence (Q9Y3R0 467-571, limits assumed, looked up): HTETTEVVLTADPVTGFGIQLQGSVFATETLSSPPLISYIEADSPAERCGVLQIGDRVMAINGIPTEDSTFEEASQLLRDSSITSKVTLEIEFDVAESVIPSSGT

T7: LIN7B, Q9HAP6
T7 sequence (Q9HAP6 88-185, limits assumed, looked up): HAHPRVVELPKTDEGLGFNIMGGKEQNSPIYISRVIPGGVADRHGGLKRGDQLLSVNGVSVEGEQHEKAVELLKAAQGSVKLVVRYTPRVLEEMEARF

T8: SNTB1, Q13884
T8 sequence (Q13884 107-205, limits assumed, looked up): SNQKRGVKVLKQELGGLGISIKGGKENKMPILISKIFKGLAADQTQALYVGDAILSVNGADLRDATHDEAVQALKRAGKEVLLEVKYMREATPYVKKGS

T9: LNX2_3, Q8N448
T9 sequence (Q8N448 463-564, limits assumed, looked up): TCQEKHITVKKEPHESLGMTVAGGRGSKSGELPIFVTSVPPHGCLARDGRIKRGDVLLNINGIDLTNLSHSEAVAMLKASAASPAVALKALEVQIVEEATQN

T10: SNTG2, Q9NY99
T10 sequence (Q9NY99 68-166, limits assumed, looked up): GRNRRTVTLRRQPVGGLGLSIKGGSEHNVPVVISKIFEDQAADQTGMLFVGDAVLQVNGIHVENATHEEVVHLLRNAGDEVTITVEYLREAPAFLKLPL

T11: NHERF3_4, Q5T2W1
T11 sequence (Q5T2W1 373-468, limits assumed, looked up): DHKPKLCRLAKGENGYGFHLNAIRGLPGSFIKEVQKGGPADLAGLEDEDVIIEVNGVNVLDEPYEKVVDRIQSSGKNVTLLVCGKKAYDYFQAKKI

T12: HTRA4, P83105
T12 sequence (P83105 378-476, limits assumed, looked up): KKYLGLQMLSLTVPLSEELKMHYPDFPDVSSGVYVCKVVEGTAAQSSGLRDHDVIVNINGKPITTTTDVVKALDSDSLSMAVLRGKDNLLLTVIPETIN


How the values were obtained:
Test in all cases: holdup assay
Set-up in all cases: key: below the threshold = too weak to quantify, mostly under pKd 3.1 to 4
Conditions in all cases: plain residues with an end cap or a label only (N-terminal biotin on a linker: ado-ado)
[1] = molecular target: Inadl_3, Q8NI35
Chain of Inadl_3, Q8NI35 (Q8NI35 359-469): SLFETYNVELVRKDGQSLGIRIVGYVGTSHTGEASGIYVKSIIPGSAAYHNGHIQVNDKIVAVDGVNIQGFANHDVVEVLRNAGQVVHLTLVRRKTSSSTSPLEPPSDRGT

[2] = molecular target: DLG4_3, P78352
Chain of DLG4_3, P78352 (P78352 306-403): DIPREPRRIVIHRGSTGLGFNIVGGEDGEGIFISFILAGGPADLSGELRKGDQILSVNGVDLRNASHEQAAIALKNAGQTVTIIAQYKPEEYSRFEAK

[3] = molecular target: LNX1_3, Q8TBB1
Chain of LNX1_3, Q8TBB1 (Q8TBB1 500-596): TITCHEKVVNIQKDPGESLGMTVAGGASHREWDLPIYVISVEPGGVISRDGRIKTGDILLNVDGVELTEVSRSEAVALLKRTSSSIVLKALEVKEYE

[4] = molecular target: T1, APBA2_2, Q99767
[5] = molecular target: T2, LIN7C, Q9NUP9
[6] = molecular target: TJP1_3, Q07157
Chain of TJP1_3, Q07157 (Q07157 416-512): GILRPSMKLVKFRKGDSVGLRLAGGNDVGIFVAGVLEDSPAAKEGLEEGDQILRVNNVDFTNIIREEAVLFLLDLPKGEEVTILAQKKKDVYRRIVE

[7] = molecular target: T3, ARHGAP21, Q5T5U3
[8] = molecular target: DLG1_2, Q12959
Chain of DLG1_2, Q12959 (Q12959 314-412): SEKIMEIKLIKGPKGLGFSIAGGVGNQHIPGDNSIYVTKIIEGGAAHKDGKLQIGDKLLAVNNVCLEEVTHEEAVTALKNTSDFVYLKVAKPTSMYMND

[9] = molecular target: MAGI2_4, Q86UL8
Chain of MAGI2_4, Q86UL8 (Q86UL8 772-865): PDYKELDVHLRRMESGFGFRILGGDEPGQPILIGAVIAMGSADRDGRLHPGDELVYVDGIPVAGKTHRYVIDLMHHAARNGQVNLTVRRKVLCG

[10] = molecular target: Inadl_6, Q8NI35
Chain of Inadl_6, Q8NI35 (Q8NI35 1058-1167): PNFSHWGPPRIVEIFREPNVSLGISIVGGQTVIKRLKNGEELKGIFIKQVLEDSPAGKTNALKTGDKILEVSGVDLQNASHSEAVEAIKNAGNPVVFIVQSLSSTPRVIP

[11] = molecular target: T4, PDZD2_2, O15018
[12] = molecular target: LAP2, Q96RT1
Chain of LAP2, Q96RT1 (Q96RT1 other isoform, or with tags, fused parts or gaps): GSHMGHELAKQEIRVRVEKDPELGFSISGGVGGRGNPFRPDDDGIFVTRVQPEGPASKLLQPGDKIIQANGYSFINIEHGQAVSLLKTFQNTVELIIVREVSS

[13] = molecular target: T5, PDZRN3_1, Q9UPQ7
[14] = molecular target: T6, GRIP1_4, Q9Y3R0
[15] = molecular target: T7, LIN7B, Q9HAP6
[16] = molecular target: T8, SNTB1, Q13884
[17] = molecular target: T9, LNX2_3, Q8N448
[18] = molecular target: T10, SNTG2, Q9NY99
[19] = molecular target: T11, NHERF3_4, Q5T2W1
[20] = molecular target: FRMPD2_1, Q68DX3
Chain of FRMPD2_1, Q68DX3 (Q68DX3 770-861): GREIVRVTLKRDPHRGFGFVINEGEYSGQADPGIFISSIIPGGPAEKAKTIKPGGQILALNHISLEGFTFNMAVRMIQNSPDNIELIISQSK

[21] = molecular target: DLG1_3, Q12959
Chain of DLG1_3, Q12959 (Q12959 457-571): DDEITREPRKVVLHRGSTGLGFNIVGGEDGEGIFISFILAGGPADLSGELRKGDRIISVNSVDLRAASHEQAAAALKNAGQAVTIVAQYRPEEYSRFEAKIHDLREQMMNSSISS

[22] = molecular target: LNX1_2, Q8TBB1
Chain of LNX1_2, Q8TBB1 (Q8TBB1 371-470): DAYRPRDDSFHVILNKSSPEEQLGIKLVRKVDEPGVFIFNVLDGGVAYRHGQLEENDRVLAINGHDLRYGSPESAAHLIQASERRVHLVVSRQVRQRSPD

[23] = molecular target: SCRIB_2, Q14160
Chain of SCRIB_2, Q14160 (Q14160 857-960): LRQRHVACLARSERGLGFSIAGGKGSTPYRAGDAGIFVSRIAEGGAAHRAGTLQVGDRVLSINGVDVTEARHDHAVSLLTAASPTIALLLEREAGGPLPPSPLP

[24] = molecular target: T12, HTRA4, P83105
[25] = molecular target: IL16_4, Q14005
Chain of IL16_4, Q14005 (Q14005 1229-1329): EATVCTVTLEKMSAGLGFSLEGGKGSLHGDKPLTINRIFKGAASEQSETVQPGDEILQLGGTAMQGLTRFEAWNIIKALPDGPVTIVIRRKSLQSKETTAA

Binder	pKd [1]	pKd [2]	pKd [3]	pKd [4]	pKd [5]	pKd [6]	pKd [7]	pKd [8]	pKd [9]	pKd [10]	pKd [11]	pKd [12]	pKd [13]	pKd [14]	pKd [15]	pKd [16]	pKd [17]	pKd [18]	pKd [19]	pKd [20]	further results
KKMPSIESDV [GRIN2A, Q12879]	below the threshold	below the threshold	below the threshold	below the threshold	below the threshold	below the threshold	below the threshold	5.44	below the threshold	below the threshold	4.91	4.6	below the threshold	below the threshold	3.71	4.69	below the threshold	4.41	below the threshold	below the threshold	pKd [21]: below the threshold; pKd [22]: below the threshold; pKd [23]: 4.43; pKd [24]: below the threshold; pKd [25]: below the threshold
TSQESEDTYL [TBC1D10A, Q9BXI6]	below the threshold	below the threshold	below the threshold	below the threshold	below the threshold	below the threshold	4.45	below the threshold	below the threshold	3.78	4.49	3.54	3.48	below the threshold	below the threshold	3.79	below the threshold	below the threshold	3.48	below the threshold	pKd [21]: below the threshold; pKd [22]: below the threshold; pKd [23]: below the threshold; pKd [24]: 3.75; pKd [25]: below the threshold
DDENIRTSDV [PLEKHA2, Q9HB19]	below the threshold	below the threshold	below the threshold	below the threshold	below the threshold	below the threshold	4.37	4.46	below the threshold	below the threshold	5.74	4.18	below the threshold	below the threshold	below the threshold	5.37	below the threshold	4.08	below the threshold	below the threshold	pKd [21]: below the threshold; pKd [22]: below the threshold; pKd [23]: 3.75; pKd [24]: below the threshold; pKd [25]: below the threshold
HSGYRLNDYV [CLDN14, O95500]	below the threshold	below the threshold	below the threshold	below the threshold	below the threshold	below the threshold	3.95	3.77	3.94	below the threshold	4.79	below the threshold	below the threshold	below the threshold	below the threshold	3.54	below the threshold	below the threshold	below the threshold	below the threshold	pKd [21]: below the threshold; pKd [22]: 3.61; pKd [23]: below the threshold; pKd [24]: 3.95; pKd [25]: below the threshold
